# Assay results taken from the nanobody polyreactivity screen of Harvey et al. (2022).
# Test: yeast display, Sf9 membrane polyspecificity reagent, FACS + sequencing; frameworks hold sequencing errors
# How it was run: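 A synthetic nanobody library was expressed on Saccharomyces cerevisiae BJ5465 by galactose induction for 36–48 hours. The library was stained for 1 hour at 4 °C with 10% biotinylated, detergent-solubilized Sf9 membrane reagent and enriched with streptavidin microbeads before FACS. Low and high (top ~1%) gates were set on anti-HA fluorescence for expression and streptavidin fluorescence for reagent binding, and each polyreactivity label reflects the gate of origin.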
row,Sequence,polyreactivity (PSR sort gate)
1,QVQLVESGGGLVQAGGSLRLSCAASGSIFHSYAMGWYRQAPGKERDFVASITQRVGRTNYADSVKGRFTISRDNAKNTVYLQMNSLKPEDTAVYYFAASYWRLYYRRDYWGQGTQVTVSS,high polyreactivity
2,QVQLVESGGGLVQAGGSLRLSCAASGSIFHTYAMGWYRKAPEKERELVAANTVSGGDTYYADSVKGRFTISRDNEKNTVYLQMNSLKAEDTAVYYCAVDTTTSYTVEYDYWGQGTQVTVSS,low polyreactivity
3,QVQLVESGGGLVQAGGSLRLSCAASGSIFHWNAMGWYRQAPGKERELVAGITTSGGTTYYADSVKGRFTISRDNAKNTVYLQMNSLKPEDTAVYYCAARIIRWRPRWPSYGKYDYWGQGTQVTVSS,low polyreactivity
4,QVQLVESGGGLVQAGGSLRLSCAASGSIFHYNAMGWSRQAPGKERELVAAISRGGSTHYADSVKGRFTISRDNAKNTVYLQMNSLKPEDTAVYYCATVQVVGPWSYRKLDYCGQGTQVTVSS,high polyreactivity
5,QVQLVESGGGLVQAGGSLRLSCAASGSIFHYYAMGWYRQAPGKERELVAAINSSGGSRTYYADSVKGRFTISRDNAKNTVYLQMNSLKPEDTAVYYCAAARDVFLGLQIWYWYGGDYWGQGTQVTVSS,low polyreactivity
6,QVQLVESGGGLVQAGGSLRLSCAASGSIFHYYAMGWYRQAPGKERELVAAISWSGGRTNYADSVKGRFTISRDNAKNTVYLQMKSLKPEDTAVYYCAAGNSFSDRGHRVYFQYYYWGQGTLVTVSS,high polyreactivity
7,QVQLVESGGGLVQAGGSLRLSCAASGSIFIANAMGWYRQAPGKERELFAAITLNGGSTYYADSVKGRFTISRDNAKNTVYLQMNSLKPEDTAVYYCAADWVWVAPQYWIVEYDYRGQGTQVTVSS,low polyreactivity
8,QVQLVESGGGLVQAGGSLRLSCAASGSIFIDNAMGWYRQAPGKEREFVAAISKSGTSTYYADSVKGRFTISRDNAKNTVYLQMNSLKPEDTAVYYCAVRRPRPYSNYYYWGQGTQVTVSS,high polyreactivity
9,QVQLVESGGGLVQAGGSLRLSCAASGSIFIDYVMGWYRQAPGTERELVAAISKRGGSTYYADSVKGRFTISRDNAKNTVYLQMNSLKPEDTAVYYCNAYRIGVYTAKDGYWGQGTQVTVSS,high polyreactivity
10,QVQLVESGGGLVQAGGSLRLSCAASGSIFIGNAMGWYRQAPGKERELVAAITWSGGSTTYADSVKGRFTISRDNAKNTVYLQMNSLKPEDTAVYYCNASIYQRYDYWGQGTQVTVSS,low polyreactivity
11,QVQLVESGGGLVQAGGSLRLSCAASGSIFIHNAMGWYRQAPGKERELVPGITTGGSTYYADSVKGRFTISRDNAKNTVYLQMNSLKPEDTAVYYCATARSYLTYSYHYDYWGQGTQVTVSS,low polyreactivity
12,QVQLVESGGGLVQAGGSLRLSCAASGSIFINYVMGWYRQAPGKERELVAAISSIGDSTYYADSVKGRFTISRDNAKNTVYLQMNSLKPEDTAVYYCNAEIPSLKASPLYRYDYWGQGTKVTVSS,high polyreactivity
13,QVQLVESGGGLVQAGGSLRLSCAASGSIFIPYAMGWYRQAPGKERELVAAISGSGTSTNYADSVKGRFTISRDNAKNTVYLQMNSLKPEDTAVYYCAARLPYGYLRSKFYYWGQGTQVTVSS,high polyreactivity
14,QVQLVESGGGLVQAGGSLRLSCAASGSIFISNAMGWYRQAPGKEWELVAAINWTTGRTRYADSVKGRFTISRDNAKNTVYLQMNSLKPEDTAVYYCAARPYGGGRRSIYYYWGQGHQVTVSS,high polyreactivity
15,QVQLVESGGGLVQAGGSLRLSCAASGSIFISNAMGWYRQAPGTERELVAAISRSGARTYYADSVKGRFTISRDNAKNTVYLQMNSLKPEDTAVYYCAVVGYSPYKYDYWGQGTQVTVSS,high polyreactivity
16,QVQLVESGGGLVQAGGSLRLSCAASGSIFISYAMGWYRQAPGKERELVAAISRSAGRTYYADSVKGRFTISRDNAKNTVYLQMNSLQPEDTAVYYCAASGYKNGVYTYGYWGQGTQVTVSS,high polyreactivity
17,QVQLVESGGGLVQAGGSLRLSCAASGSIFITYAMGWYIQAPGKERELVTAIRDSGDRTYYADSVKGRFTISRDNAKNTVYLQMNSLKPEDTSVYYCAAVLYSRLYWDRLDYWGQGTQVTVSS,low polyreactivity
18,QVQLVESGGGLVQAGGSLRLSCAASGSIFITYAMGWYRQAPGKERELVAAIRDSGDRTYYADSVKGRFTISRDNAKNTVYLQMNSLKPEDTAVYYCAKRAWGSPYGYWGQGTQVTVSS,low polyreactivity
19,QVQLVESGGGLVQAGGSLRLSCAASGSIFITYAMGWYRQPPGKERELVATITSRSGGTYYADSVKGRFTISRDNAQNTVYLQMNSLKPEDTAVYYCNAVYTYPVFHGMGYWGQGTQVTVSS,high polyreactivity
20,QVQLVESGGGLVQAGGSLRLSCAASGSIFITYAMVWSRQAPGKERELVAAIRDSGDRTYYADSVKGRFTISRDNAKNTVYLQMNSLKPEDTAVYYCAADYFVQVPDYYYASEYGYWGQGTQVTVSS,low polyreactivity
21,QVQLVESGGGLVQAGGSLRLSCAASGSIFIVNVMGWYRQAPGKERELVAGITTNGGITYYADSVKGRFTISRDNAKNTVYLQMNSLKPEDTAVYYCATRSGSPSSIEMDYWGQGTQVTVSS,low polyreactivity
22,QVQLVESGGGLVQAGGSLRLSCAASGSIFIVYAMGWYRQAPGKERELVAAISYRGGSTYADSVKGRFTISRDNAKNTVYLQMNSLKPEDTAVYYCAADDLSYVGYYYGYVDDDYWGQGTQVTVSS,high polyreactivity

row,Sequence,polyreactivity (PSR sort gate)
1,QVQLVESGGGLVQAGGSLRLSCAASGSIFIWYSMGWYRQAPGKERELVASITYSAGRTYYADSVKGRFTISRDNAKNTVYLQMNSLKPEDTAVYYCAADSPYVYTLDSYGEGDYWGQGSQVTVSS,low polyreactivity
2,QVQLVESGGGLVQAGGSLRLSCAASGSIFIYYAMGWTRQAPGKERELVATISSDDRTNYTDSVKGRFTISRDNAKNTVYLQMNSLKPEDTAVYYCAADRYWGGRDGPEYDYWGQGTQVTVSS,low polyreactivity
3,QVQLVESGGGLVQAGGSLRLSCAASGSIFIYYAMGWYRQAPGKERELVAAISSSGGSTYYADSVKGRFTISRDNAKNTVYLQTNSLKPEDTAVYYCATVPYRYYDDDYWGQGTQVTVSS,high polyreactivity
4,QVQLVESGGGLVQAGGSLRLSCAASGSIFIYYAMGWYRQPPGKERELVAAISYSDGDTYYADSVKGRFTISRDNAKNTVYLQMNSLKPEDTAVYYCAAEVTLSYDVGWEDYWGQGTQVTVSS,high polyreactivity
5,QVQLVESGGGLVQAGGSLRLSCAASGSIFIYYTMGWYRQAPGKERELVAAISWRGGRTYYADSVKGRFTISRDNAKNTVYLQMNSLKPEDTAVYYCNAQPSVYYGRWGLNYGYWGQGTQVTVSS,high polyreactivity
6,QVQLVESGGGLVQAGGSLRLSCAASGSIFKCNSRGWYRQAPVKERELVAAITFSGSSTFYADSVKGRFTISRDTAKNTVYLQMNSLKTEDSALYYCNAVRRQQFGSWGQGTQGTVSS,high polyreactivity
7,QVQLVESGGGLVQAGGSLRLSCAASGSIFKDYAMGWYRQAPGKERELVAAITSGGRTNYADSVKGRFTISRDNAKNTVYLQMNSLKPEDTAVYYCAARKGKETLYHSTPPYYYWGQGTQVTVSS,low polyreactivity
8,QVQLVESGGGLVQAGGSLRLSCAASGSIFKFYTMGWYRQAPGKERELVAAISWSGGRTYYADSVKGRFTISRDNAKNTVYLQMNSLKPEDTAVYYCAVPRVGLHGIGSDYWGQGTQVTVSS,high polyreactivity
9,QVQLVESGGGLVQAGGSLRLSCAASGSIFKFYTMGWYRQAPGKERELVATISRSGGGTFYADSVKGRFTISGDNSKNTVYLQMNSLKPEDTAVYYCSADPAFTHYPFGYGYWGQGTQVTVSS,low polyreactivity
10,QVQLVESGGGLVQAGGSLRLSCAASGSIFKGNAMGWYRQAPRKERELVATITSSGDSTNYADSVKGRFTISRDNAKNTVYLQMNSLKPEDTAVYYCATEPFRYSLAGGYWGQGTQVTVSS,low polyreactivity
11,QVQLVESGGGLVQAGGSLRLSCAASGSIFKGYAMGWYRQAPGKERELVAAISGGGGSTYYADSVKGRFTISRDNAKNTVYLQMNSLKPEDTAVYYCNRDDSWSTTGAYDYWGQGTQVTVSS,low polyreactivity
12,QVQLVESGGGLVQAGGSLRLSCAASGSIFKGYAMGWYRQAPGKERELVASISWRGDNTYYADSVKGRFTISRDYAKNTVYLQMNSLKPEDTAVYYCNAQSREHYFFIYDYWGQGTQVTVSS,high polyreactivity
13,QVQLVESGGGLVQAGGSLRLSCAASGSIFKIYAKGWYRQAPGKERELVASITGSGGSTYYADSVKGRFTISRDNAKNTVYLQMNSLKPEDTAVYYCAAAVLGSSKSEVDPDRPEYYYWGQGTQVTVSS,low polyreactivity
14,QVQLVESGGGLVQAGGSLRLSCAASGSIFKIYAMGWYRQAPGKERELVAAITINGGSTYYADSVKGRFTISRDNAKNTVYLLMNSLKPEDTAVYYCAADFFHRAGWYFAYGHWGQGTQVTVSS,low polyreactivity
15,QVQLVESGGGLVQAGGSLRLSCAASGSIFKKYAMGWYRQAPGKERELFAAITRGTYYADSVKGRFTISRDNAKNTVYFQMNSLKPEDTAVYFCNREYWGRGYYRVRGEYDYWGQGTQVTVSS,low polyreactivity
16,QVQLVESGGGLVQAGGSLRLSCAASGSIFKKYAMGWYRQSPGKERELVAAISSTGGSTKYADSVKGRFTISRDNAKNTVYLQMNSLKPEDTAVYYCAVRYKWPYDYWGQGTQVTVSS,high polyreactivity
17,QVQLVESGGGLVQAGGSLRLSCAASGSIFKPYAMGWYRQAPGKERELVAAISSSGGSTYYADSVKGRFTISRDNAKNTVYLQMNSLKPEDTAVYYCNADWYYAGYGYWGQGTQVTVSS,low polyreactivity
18,QVQLVESGGGLVQAGGSLRLSCAASGSIFKPYVMGWYRQAPGKERELVAAITSSGVSTYYADSVKGRFTISRDNAKNTVYLQMNSLKPEDTAVYYCAADQYLGRAWRRRGYYWGQGTQVTVSS,high polyreactivity
19,QVQLVESGGGLVQAGGSLRLSCAASGSIFKQNNMGWYRQAPGKERELVAAISSGGSTYYADSVKGRFTISRDNAKNTVYLQMNSLKPEDTAVYYCAKYYDWDYYLPLEGDYWGQGTQVTVSS,low polyreactivity
20,QVQLVESGGGLVQAGGSLRLSCAASGSIFKRYAMGWYRQAPGKERELVAAISTSGGRTYYADSVKGRFTISRDNAKNTVYLQMNRLNQEDTAVYYCAADIWARYYFWGFEHDYWGQGTQVTVSS,low polyreactivity
21,QVQLVESGGGLVQAGGSLRLSCAASGSIFKRYARGWYRPAPGKERELVAAISWSGGNTYYADSVKGRFTISRDNSKNTVYLQMNSLKPEDTAVYYCAKRYRGGYYYPYNYWGQGTQVTVSS,high polyreactivity
